Laboratory results as given in publication PMC6825169, “Extracellular vesicle integrins act as a nexus for platelet adhesion in cerebral microvessels” (Scientific Reports, 2019).
Bridges are numbered along the chain shown (N, C = ends).

Molecular target: integrin αvβ3 (mouse (endogenous in mouse middle …, UniProt P43406 31-1044; O54890 26-787)
Experiment: cell-based or functional assay

integrin αvβ3 (mouse, sequence (P43406 31-1044, chain 1 of 2): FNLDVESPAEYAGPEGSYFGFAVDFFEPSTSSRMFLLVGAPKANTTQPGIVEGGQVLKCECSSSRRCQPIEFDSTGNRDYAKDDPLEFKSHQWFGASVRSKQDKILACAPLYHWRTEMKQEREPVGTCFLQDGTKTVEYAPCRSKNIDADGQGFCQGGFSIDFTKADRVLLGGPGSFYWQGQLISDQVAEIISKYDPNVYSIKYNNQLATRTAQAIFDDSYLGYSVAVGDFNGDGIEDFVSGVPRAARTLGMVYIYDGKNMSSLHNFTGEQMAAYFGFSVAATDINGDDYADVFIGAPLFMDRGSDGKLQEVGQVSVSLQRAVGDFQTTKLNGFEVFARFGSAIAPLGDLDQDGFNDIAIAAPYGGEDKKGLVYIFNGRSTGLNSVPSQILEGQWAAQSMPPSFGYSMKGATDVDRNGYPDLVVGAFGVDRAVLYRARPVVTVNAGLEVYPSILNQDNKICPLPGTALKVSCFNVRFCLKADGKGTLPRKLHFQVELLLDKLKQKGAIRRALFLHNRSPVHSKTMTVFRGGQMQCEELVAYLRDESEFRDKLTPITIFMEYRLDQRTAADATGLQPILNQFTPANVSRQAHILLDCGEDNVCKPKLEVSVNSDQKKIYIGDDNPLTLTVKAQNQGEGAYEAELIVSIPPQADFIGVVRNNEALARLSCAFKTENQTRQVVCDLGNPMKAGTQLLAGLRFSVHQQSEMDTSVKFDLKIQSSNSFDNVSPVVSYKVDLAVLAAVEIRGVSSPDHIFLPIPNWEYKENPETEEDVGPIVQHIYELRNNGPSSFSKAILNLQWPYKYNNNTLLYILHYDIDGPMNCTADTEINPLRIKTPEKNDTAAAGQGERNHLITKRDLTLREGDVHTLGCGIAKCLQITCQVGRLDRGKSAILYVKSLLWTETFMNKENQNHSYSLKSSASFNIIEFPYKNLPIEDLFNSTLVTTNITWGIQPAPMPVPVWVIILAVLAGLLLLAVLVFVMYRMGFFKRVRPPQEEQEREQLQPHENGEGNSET
integrin αvβ3 (mouse, sequence (O54890 26-787, chain 2 of 2): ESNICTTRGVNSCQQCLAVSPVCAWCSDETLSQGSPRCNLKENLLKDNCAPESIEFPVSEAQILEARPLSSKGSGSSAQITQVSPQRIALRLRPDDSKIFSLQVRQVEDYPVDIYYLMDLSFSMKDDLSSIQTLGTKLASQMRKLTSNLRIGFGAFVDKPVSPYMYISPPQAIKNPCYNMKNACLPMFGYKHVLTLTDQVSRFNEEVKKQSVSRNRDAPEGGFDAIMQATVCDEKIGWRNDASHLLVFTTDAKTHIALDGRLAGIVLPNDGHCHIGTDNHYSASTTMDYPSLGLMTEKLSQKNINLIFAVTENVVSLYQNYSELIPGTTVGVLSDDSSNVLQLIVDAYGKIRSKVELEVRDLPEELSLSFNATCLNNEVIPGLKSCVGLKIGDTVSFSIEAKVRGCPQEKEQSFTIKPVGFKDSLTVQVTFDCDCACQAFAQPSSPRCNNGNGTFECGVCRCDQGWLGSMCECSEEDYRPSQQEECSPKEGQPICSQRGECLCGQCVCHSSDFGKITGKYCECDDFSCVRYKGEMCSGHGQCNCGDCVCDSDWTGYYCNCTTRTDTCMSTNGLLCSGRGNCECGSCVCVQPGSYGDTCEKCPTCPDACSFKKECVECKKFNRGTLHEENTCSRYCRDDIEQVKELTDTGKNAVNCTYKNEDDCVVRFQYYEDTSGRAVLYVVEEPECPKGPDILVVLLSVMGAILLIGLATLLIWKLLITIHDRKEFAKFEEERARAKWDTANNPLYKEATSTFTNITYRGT

B1: H-GCRGDC-NH2 (cRGD) (peptide)
peptide: H-GCRGDC-NH2
modifications: disulfide 2-6 (inferred)
Q: How did the “adherence of CFSE-labelled washed platelets to the luminal surface of the MCA under flow after cRGD-MPs, compared to cRGD peptide alone” value turn out when B1 was run?
A: 3 fold
